Assay results from patent US20150337037A1 (MSM PROTEIN TECHNOLOGIES, published 2015).
Read-outs that look alike come from different tables or passages of the source.

T1: human chemokine receptor CCR6 (human, UniProt P51684 1-374)
T1 sequence (looked up): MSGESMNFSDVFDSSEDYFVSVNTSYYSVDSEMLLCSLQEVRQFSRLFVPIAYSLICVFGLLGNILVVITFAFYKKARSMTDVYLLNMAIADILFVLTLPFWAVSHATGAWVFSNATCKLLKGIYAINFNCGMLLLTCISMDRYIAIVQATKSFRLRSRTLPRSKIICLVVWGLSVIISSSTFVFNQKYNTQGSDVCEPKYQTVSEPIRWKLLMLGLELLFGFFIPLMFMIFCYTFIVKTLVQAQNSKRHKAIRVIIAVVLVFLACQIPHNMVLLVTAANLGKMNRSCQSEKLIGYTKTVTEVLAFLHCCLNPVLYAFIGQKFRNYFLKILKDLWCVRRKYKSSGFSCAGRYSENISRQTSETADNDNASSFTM

T2: mouse CCR6 (mouse, UniProt O54689 1-367)
T2 construct: whole, on cells; gene derived from a cDNA library; also called CCR6 mouse
T2 sequence (looked up): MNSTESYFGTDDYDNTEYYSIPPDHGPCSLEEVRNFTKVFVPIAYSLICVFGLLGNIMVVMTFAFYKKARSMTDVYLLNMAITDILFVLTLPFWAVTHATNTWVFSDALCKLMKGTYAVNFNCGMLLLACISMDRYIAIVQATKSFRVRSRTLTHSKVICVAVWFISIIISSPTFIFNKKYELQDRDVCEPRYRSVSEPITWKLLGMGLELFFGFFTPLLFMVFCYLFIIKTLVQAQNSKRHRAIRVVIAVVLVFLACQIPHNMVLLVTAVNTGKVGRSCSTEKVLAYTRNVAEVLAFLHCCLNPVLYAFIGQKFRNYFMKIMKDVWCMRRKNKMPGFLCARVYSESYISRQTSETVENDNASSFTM

T3: mouse CCR7 (mouse, UniProt P47774 25-378)
T3 construct: whole, on cells; also called CCR7ms
T3 sequence (looked up): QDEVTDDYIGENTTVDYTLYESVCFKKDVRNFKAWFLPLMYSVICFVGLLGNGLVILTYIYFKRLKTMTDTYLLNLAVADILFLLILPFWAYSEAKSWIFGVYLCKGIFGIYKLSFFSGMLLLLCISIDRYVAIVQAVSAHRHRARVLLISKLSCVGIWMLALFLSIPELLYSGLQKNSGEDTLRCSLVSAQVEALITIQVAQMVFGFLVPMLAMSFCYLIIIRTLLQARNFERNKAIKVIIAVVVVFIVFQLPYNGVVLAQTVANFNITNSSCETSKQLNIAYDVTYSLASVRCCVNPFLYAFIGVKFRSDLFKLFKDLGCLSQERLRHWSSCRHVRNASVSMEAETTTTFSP

T4: human CXCR2 (human, UniProt P25025 1-360)
T4 construct: whole, on cells
T4 sequence (looked up): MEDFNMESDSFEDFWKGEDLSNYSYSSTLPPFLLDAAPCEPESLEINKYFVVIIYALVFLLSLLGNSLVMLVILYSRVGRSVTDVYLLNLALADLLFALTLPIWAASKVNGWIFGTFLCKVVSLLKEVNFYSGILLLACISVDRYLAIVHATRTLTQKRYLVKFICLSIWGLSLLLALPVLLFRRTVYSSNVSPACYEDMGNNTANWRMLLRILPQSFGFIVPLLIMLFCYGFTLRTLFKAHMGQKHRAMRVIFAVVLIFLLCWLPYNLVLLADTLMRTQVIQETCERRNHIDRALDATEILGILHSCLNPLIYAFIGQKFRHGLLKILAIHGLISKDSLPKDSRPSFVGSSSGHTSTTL


How the values were obtained:
[1] = target: T1, human chemokine receptor CCR6; assay: cell-based or functional assay
[2] = target: T1, human chemokine receptor CCR6; assay: flow cytometry on cells expressing the target, antibody titration
cynomolgus monkey CCR6 [3] = target: T5, cynomolgus monkey CCR6 (cynomolgus monkey (Macaca Fascicularis)); assay: as above
T5 construct: whole, on cells; gene derived from a total RNA library; also called CCR6 cyno; cyno CCR6

mouse CCR6 [4] = target: T2, mouse CCR6; assay: flow cytometry on CHO cells expressing mouse CCR6
Description: Cells have been incubated with fully human anti-human CCR6 antibodies in IgG1 format. After washing out residual unbound antibodies the cells were incubated with commercial anti-human Fc antibodies conjugated to the fluorescent dye phycoerythrin (IgG-PE). In more details, the cell staining procedure was: […] cell suspension in 10 μl FACS buffer (1×PBS, 2.0% FBS, 0.2% sodium azide) was mixed with 10 μl of 200 nM the corresponding anti-CCR6 MAB and incubated on ice for 30 min. Washing step—after the incubation 150 μl of FACS buffer was added to the cell sample, the samples were mixed gently by up-down pipetting the cell suspension. Then the samples were centrifuged at 1100 rpm for 5 minutes, and supernatants were removed. Washing step was repeated ones. Then 10 μl of anti-human PE-(Fab)2 form Jackson Immuno Research Lab. #709-116-098 diluted 40 times in FACS buffer were added to the cells and the cells were re-suspended by up-down pipetting. After 20 min. incubation on ice in dark the washing step was repeated twice. The washed cells were mixed with 100 μl of FIX buffer (0.5% Paraformaldehyde solution in PBS). Fixed samples were stored in dark on ice and analyzed by FACS on Guava PCA-96 flow cytometer.

[5] = target: T1, human chemokine receptor CCR6; assay: flow cytometry on cells expressing the target, IgG1 titration, anti-human Fc-PE
cynomolgus monkey CCR6 [6] = target: T5, cynomolgus monkey CCR6; assay: as above
[7] = target: T1, human chemokine receptor CCR6; assay: flow cytometry on cells expressing the target, IgG1 titration (repeat of Table 2)
cynomolgus monkey CCR6 [8] = target: T5, cynomolgus monkey CCR6; assay: as above
[9] = target: T1, human chemokine receptor CCR6; assay: cell-based or functional assay; remark: listed apart in the source
[10] = target: T1, human chemokine receptor CCR6; assay: cell-based or functional assay; remark: listed apart in the source
human CXCR6 = target: T6, human CXCR6 (human, UniProt O00574 1-342); assay: flow cytometry on GPCR-expressing cell panel
T6 construct: whole, on cells
T6 sequence (O00574 whole entry): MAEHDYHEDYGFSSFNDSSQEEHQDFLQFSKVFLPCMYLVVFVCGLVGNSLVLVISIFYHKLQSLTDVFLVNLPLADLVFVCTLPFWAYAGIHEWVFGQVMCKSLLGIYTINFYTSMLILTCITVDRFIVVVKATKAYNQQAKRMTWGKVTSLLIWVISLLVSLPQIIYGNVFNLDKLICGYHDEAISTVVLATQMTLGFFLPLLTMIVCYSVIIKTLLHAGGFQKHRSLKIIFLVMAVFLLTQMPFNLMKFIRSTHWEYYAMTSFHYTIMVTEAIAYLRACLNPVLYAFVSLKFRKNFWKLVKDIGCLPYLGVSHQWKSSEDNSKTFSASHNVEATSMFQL

mouse CCR7 = target: T3, mouse CCR7; assay: flow cytometry on GPCR-expressing cell panel
mouse CCR6 [11] = target: T2, mouse CCR6; assay: flow cytometry on cells expressing the target, IgG1 titration, anti-human Fc-PE
mouse CCR6 [12] = target: T2, mouse CCR6; assay: flow cytometry on cells expressing the target, IgG1 titration (repeat of Table 2)
human CXCR2 = target: T4, human CXCR2; assay: flow cytometry on GPCR-expressing cell panel
mouse CCR6 [13] = target: T2, mouse CCR6; assay: flow cytometry on CHO cells expressing mouse CCR6; remark: listed apart in the source
[14] = target: T1, human chemokine receptor CCR6; assay: flow cytometry on R1610 cells expressing human CCR6, IgG1 titration, anti-human Fc-PE

| IC50, nM (Ca-Flux) CCR6/CCL20 [1] [nM] | EC50 [2] [nM] | EC50 (cynomolgus monkey CCR6 [3]) [nM] | binding result (mouse CCR6 [4]) | EC50 [5] [nM] | EC50 (cynomolgus monkey CCR6 [6]) [nM] | EC50 [7] [nM] | EC50 (cynomolgus monkey CCR6 [8]) [nM] | IC50, nM CCL20-Ca-Flux [9] [nM] | Ca-Flux IC50, nM CCR6/CCL20 [10] [nM] | binding result (human CXCR6) | binding result (mouse CCR7) | EC50 (mouse CCR6 [11]) [nM] | EC50 (mouse CCR6 [12]) [nM] | binding result (human CXCR2) | binding result (mouse CCR6 [13]) | EC50 [14] [nM] | Binder |
| --- | --- | --- | --- | --- | --- | --- | --- | --- | --- | --- | --- | --- | --- | --- | --- | --- | --- |
| > 500 | 2.6 | 2.9 | – | – | – | – | – | – | – | – | – | – | – | – | – | – | MSM-R627/33 (antibody, V domains shown, also called MSM 627 HC/JSJ R633LC) VH: EVQLLESGGGLVQPGGSLRLSCAASGFTISSYMAWVRQAPGKGLEWVSSISPSSGSTYYADSVKGRFTISRDNSKNTLYLQMNSLRAEDTAVYYCARSMWSKQMHRYGLDYWGQGTLVTVSS VL: EIVLTQSPGTLSLSPGERATLSCRASQSVSSSYLAWYQQKPGQAPRLLIYGASSRATDIPDRFSGSGSGTDFTLTISRLEPEDFAVYYCQQSYSDPITFGQGTKVEIK |
| – | – | – | no binding | 25 | 14.5 | 25 | 14.5 | – | – | – | – | – | – | – | – | – | MSM-R601 IgG1 (antibody, V domains shown, Fully human IgG1 made in transiently transfected CHO cells; HC AA / LC AA entries are full chains) VH: EVQLLESGGGLVQPGGSLRLSCAASGFTFSSYAMSWVRQAPGKGLEWVSAISGSGGSTYYADSVKGRFTISRDNSKNTLYLQMNSLRAEDTAMYYCARHGYSATRQGLDYWGQGTLVTVSS VL: not shown |
| – | – | – | – | 1 | 1.8 | 1 | 1.8 | 1.5 | 1.5 | binds | binds | 1.6 | 1.6 | – | – | – | MSM-R605 IgG1 (antibody, Fully human IgG1) heavy: not shown light: EIVLTQSPGTLSLSPGERATLSCRASQSVSSSYLAWYQQKPGQAPRLLIYGASSRATGIPDRFSGSGSGTDFTLTISRLEPEDFAVYYCQQSRATPLTFGQGTKVEIKRTVAAPSVFIFPPSDEQLKSGTASVVCLLNNFYPREAKVQWKVDNALQSGNSQESVTEQDSKDSTYSLSSTLTLSKADYEKHKVYACEVTHQGLSSPVTKSFNRGEC |
| – | – | – | – | – | 3 | 2.5 | 3 | – | – | – | – | – | – | binds | no binding | 2.5 | MSM-R614 IgG1 (antibody, V domains shown, Fully human IgG1) VH: EVQLLESGGGLVQPGGSLRLSCPASGFTFTRSAMSWVRQAPGKGLEWVSYINSSGGGTYYADSVKGRFTISRDNSKNTLYLQMNSLRAEDTAVYYCARARFIWGFDYWGQGTLVTVSS VL: EIVLTQSPGTLSLSPGERATLSCRASQSVSSSYLAWYQQKPGQAPRLLIYGASSRATGIPDRFSGSGSGTDFTLTISRLEPEDFAVYYCQQWYWAPVTFGQGTKVEIKR |
